# In patent publication US20140221271A1:
# Like-named read-outs stand apart in the source and are kept apart here.
# Legend:
# Kv1.3 K+ ion channel [1] = test: cell-based or functional assay
# Kv1.3 K+ ion channel [2] = test: cell-based or functional assay; remark: listed apart in the source
Molecule,"IC50, reduction in peak whole-cell Kv1.3 current at 40 mV (patch-clamp) (Kv1.3 K+ ion channel [1])","IC50, reduction in peak whole-cell Kv1.3 current at 40 mV (patch-clamp) (Kv1.3 K+ ion channel [2])"
ShK-186 ((phospho-Tyr)-AEEA-ShK-NH2) (peptide),0.069 nM,
RSCIDTIPKSRCTAFQCKHSMKYRLSFCRKTCGTC (modifications not checked) [ShK-221-gadolinium (DOTA-conjugate of ShK-198 coordinated with gadolinium)],,0.0582 nM
RSCIDTIPKSRCTAFQCKHSMKYRLSFCRKTCGTC (modifications not checked) [ShK-221-indium (DOTA-conjugate of ShK-198 coordinated with indium)],,0.0638 nM
